Common to all, as to assay: SPR
(In general: SPR reads the build-up and loss of mass on a sensor chip optically.)

Assay [1] has as its target GGC_5.
For assay [2], the target named is GGC_13.
In assay [3] the target is GGC_6.

The term Kd denotes the equilibrium constant for the complex coming apart. Low readings indicate tighter binding, high ones weaker binding.

B1: ghrelin receptor ICL3-specific antibody (antibody, V domains shown)
VH: EVQLQQSGAELVRPGASVKLSCKASGYTFTDYEMHWVKQTPVHGLEWIGAIDPETGGTVYNQKFKGKATLTADISSTTAYMELRSLTSEDSAVYFCISEDIDESKDYWGQGTTLTVSS
VL: DIVMTQSPSSLAVSAGEKVTLSCKSSQSLFNSRTRKNYLAWYQQKPGLSPTLLIYWASTRKSGVPDRFTGSGSGTDFTLTITSVQAEDLAVYYCKQSYYLRTFGGGTKLEIK
In the case of B1, the dissociation constant (Kd) worked out at 415 nM in assay [1], 406 nM in assay [2] and 789 nM in assay [3].
